molecular target: T1, soluble human FcRn (shFcRn) (human, UniProt P55899 24-297; P61769 21-119, biotinylated with Sulfo-NHS-LC-Biotin in the ELISA; amine-coupled to a CM5 chip in SPR); test: SPR, pH 6
T1 construct: also called biotinylated shFcRn
Protocol: (§1) The following steps were performed to cross-link soluble human or cynomolgus FcRn to the dextran surface of a CM5 sensor chip (Biacore AB, Uppsala, Sweden) by an amine coupling reaction involving 1-ethyl-(3-dimethylaminopropyl)-carbodiimide hydrochloride (EDC) (Biacore AB, Uppsala, Sweden) and N-hydroxysuccinimide (NHS) (Biacore AB, Uppsala, Sweden) as recommended by Biacore (BIAapplications Handbook, version AB, section 4.2, Biacore AB, Uppsala, Sweden). The FcRn protein was diluted in 50 mM sodium acetate, pH 4.5 (Biacore AB, Uppsala, Sweden) to a concentration of 10 to 30 µg/ml and used to coat one flow cell on the sensor chip. Residual sites on the FcRn flow cell were blocked with 1 M ethanolamine hydrochloride pH 8.5 (Biacore AB, Uppsala, Sweden). A control flow cell was blocked with ethanolamine for reference subtraction. For analysis of the monomeric peptides, FcRn was coated to a final density of 4000-5000 response units (RU). For analysis of the peptide dimers, FcRn was coated to a density of 2000-2500 RU. All SPR measurements were performed using a BIACORE 3000 Instrument (Biacore AB Uppsala, Sweden). For measurements done at either pH 6 or pH 7.4, experiments were performed in 50 mM phosphate, 100 mM sodium chloride, 0.01% surfactant P20 (Biacore AB, Uppsala, Sweden).
(§2) A. Representative Procedure for the Determination of Binding Constant of Monomeric Peptides Ten 2-fold dilutions of the peptide were injected over the FcRn-CM5 chip at a rate of 20 µl/min for 2 min. The peptide was dissociated from the chip for 2.5 minutes with buffer. Any remaining peptide was removed from the chip with a 30 second injection of HBS-P buffer (Biacore AB, Uppsala, Sweden) at a rate of 30 µl/min. Sensorgrams were generated and analyzed using BiaEval software version 3.1 (Biacore AB, Uppsala, Sweden). The equilibrium RU observed for each injection was plotted against concentration. The equilibrium K_D values were derived by analysis of the plots using the steady state affinity model included in the BiaEval software.

T1 sequence (P55899 24-297 limits assumed, chain 1 of 2): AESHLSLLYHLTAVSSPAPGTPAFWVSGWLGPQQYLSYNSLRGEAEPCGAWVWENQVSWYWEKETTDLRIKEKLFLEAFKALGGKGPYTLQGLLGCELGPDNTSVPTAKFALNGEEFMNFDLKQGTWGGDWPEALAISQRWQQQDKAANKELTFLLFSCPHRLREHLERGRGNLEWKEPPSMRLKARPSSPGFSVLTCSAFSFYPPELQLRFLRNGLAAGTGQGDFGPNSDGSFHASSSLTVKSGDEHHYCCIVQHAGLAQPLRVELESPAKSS
T1 sequence (P61769 21-119 limits assumed, chain 2 of 2): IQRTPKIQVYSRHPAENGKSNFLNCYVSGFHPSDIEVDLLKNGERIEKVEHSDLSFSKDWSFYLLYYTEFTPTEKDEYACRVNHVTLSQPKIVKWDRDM

Row | Binder | Kd [µM]
1 | QRFXTGHFGXLYPCNGP (Pen4; D-Ile10; disulfide; C-terminal amide) [Peptide No. 43] | 2.2
2 | QRFXTGHFXGLYPCNGP (Pen4; D-Pro9; disulfide; C-terminal amide) [Peptide No. 48] | 0.79
3 | QRFCTGHFXXLYPCNGP (D-Ala9; D-Ala10; disulfide; C-terminal amide) [Peptide No. 24] | 22
4 | QRFVTGHFGXWYPANGP (D-Pro10; unbridged; C-terminal amide) [Peptide No. 177] | 5.8

molecular target: T1, soluble human FcRn (shFcRn); test: SPR, pH 6; remark: another data set of the same source
Protocol: as §1, §2

Row | Binder | Kd [µM]
5 | QRFXTGHFXXXYPCNGP (Pen4; D-Ala9; Sar10; NMeLeu11; disulfide; C-terminal amide) [Peptide No. 188] | 0.73

molecular target: T1, soluble human FcRn (shFcRn); test: SPR, pH 7.4
Protocol: as §1, §2

Row | Binder | Kd [µM]
6 | QRFXTGHFGXLYPCNGP (Pen4; D-Ile10; disulfide; C-terminal amide) [Peptide No. 43] | 41
7 | QRFXTGHFXGLYPCNGP (Pen4; D-Pro9; disulfide; C-terminal amide) [Peptide No. 48] | 21
8 | QRFCTGHFXXLYPCNGP (D-Ala9; D-Ala10; disulfide; C-terminal amide) [Peptide No. 24] | > 250
9 | QRFVTGHFGXWYPANGP (D-Pro10; unbridged; C-terminal amide) [Peptide No. 177] | 96
10 | RFVTGHFGXXYPA (Sar9; NMeLeu10; unbridged; C-terminal amide) [Peptide No. 236] | 9

molecular target: T1, soluble human FcRn (shFcRn); test: competition ELISA vs human IgG
Protocol: (§3) The wells were coated with 100 μl/well of 1 μg/ml biotinylated-shFcRn in Buffer A. The plate was sealed and incubated at 37° C. for 2 hours. Afterwards, the plate was washed with 200 μl/well of Buffer B (Buffer B: 100 mM MES pH 6, 150 mM NaCl, 0.5% BSA IgG-free (Jackson ImmunoResearch, West Grove, Pa.), 0.05% Tween-20). […] To allow for mixing, the plate was rocked for 2 minutes, sealed and incubated at 37° C. for 2 hours. […] The plate was covered, incubated for 30 minutes at room temperature and washed 4 times with 200 μl/well of ice-cold buffer B. SureBlue TMB substrate solution (100 μl/well, KPL, Gaithersburg, Md.) was added and the plate was allowed to incubate at room temperature until color developed, which took 5 to 10 minutes. Once color developed, 100 μl/well of TMB stop solution (KPL, Gaithersburg, Md.) was added and the absorbance was measured at 450 nm.

Row | Binder | IC50 [µM]
11 | QRFXTGHFGXLYPCNGP (Pen4; D-Ile10; disulfide; C-terminal amide) [Peptide No. 43] | 18
12 | QRFXTGHFXGLYPCNGP (Pen4; D-Pro9; disulfide; C-terminal amide) [Peptide No. 48] | 5
13 | QRFCTGHFXXLYPCNGP (D-Ala9; D-Ala10; disulfide; C-terminal amide) [Peptide No. 24] | 69
14 | QRFVTGHFGXWYPANGP (D-Pro10; unbridged; C-terminal amide) [Peptide No. 177] | 52
15 | RFVTGHFGXXYPA (Sar9; NMeLeu10; unbridged; C-terminal amide) [Peptide No. 236] | 37
16 | QRFXTGHFGGLYPXNGP (D-Cys4; D-Cys14; disulfide; C-terminal amide) [Peptide No. 31] | > 500

molecular target: T1, soluble human FcRn (shFcRn); test: competition ELISA vs human IgG; remark: another data set of the same source
Protocol: as §3

Row | Binder | IC50 [µM]
17 | QRFXTGHFXXXYPCNGP (Pen4; D-Ala9; Sar10; NMeLeu11; disulfide; C-terminal amide) [Peptide No. 188] | 6.5

molecular target: T1, soluble human FcRn (shFcRn); test: competition ELISA vs human IgG; remark: another data set of the same source
Protocol: as §3

Row | Binder | IC50 [µM]
18 | RFVTGHFGXXYPA (Sar9; NMeLeu10; unbridged; C-terminal amide) [Peptide No. 236] | 37

molecular target: T1, soluble human FcRn (shFcRn); test: SPR, pH 6; Tyr replaced by NMeTyr (N-methyl scan)
Protocol: as §1, with “All SPR measurements were performed using a BIACORE 3000 Instrument (Biacore AB Uppsala, Sweden). For measurements done at either pH 6 or pH 7.4, experiments were performed in 50 mM phosphate, 100 mM sodium chloride, 0.01% surfactant P20 (Biacore AB, Uppsala, Sweden).” left out
(§4) A. Representative Procedure for the Determination of Binding Constant of Monomeric Peptides Ten 2-fold dilutions of the peptide were injected over the FcRn-CM5 chip at a rate of 20 µl/min for 2 min. […] Sensorgrams were generated and analyzed using BiaEval software version 3.1 (Biacore AB, Uppsala, Sweden). […]

Row | Binder | Kd [µM]
19 | QRFXTGHFGGLXPCNGP (Pen4; NMeTyr12; disulfide; C-terminal amide) [Peptide No. 114] | 92

molecular target: T1, soluble human FcRn (shFcRn); test: SPR, pH 6; small-letter c (D-cysteine) at both Cys positions
Protocol: as §1, with “All SPR measurements were performed using a BIACORE 3000 Instrument (Biacore AB Uppsala, Sweden). For measurements done at either pH 6 or pH 7.4, experiments were performed in 50 mM phosphate, 100 mM sodium chloride, 0.01% surfactant P20 (Biacore AB, Uppsala, Sweden).” left out
as §4

Row | Binder | Kd [µM]
20 | QRFXTGHFGGLYPXNGP (D-Cys4; D-Cys14; disulfide; C-terminal amide) [Peptide No. 31] | 200

molecular target: T1, soluble human FcRn (shFcRn); test: SPR, pH 6; small-letter c (D-cysteine) at first Cys position, no Pen
Protocol: as §1, with “All SPR measurements were performed using a BIACORE 3000 Instrument (Biacore AB Uppsala, Sweden). For measurements done at either pH 6 or pH 7.4, experiments were performed in 50 mM phosphate, 100 mM sodium chloride, 0.01% surfactant P20 (Biacore AB, Uppsala, Sweden).” left out
as §4

Row | Binder | Kd [µM]
21 | QRFXTGHFGGLYPCNGP (D-Cys4; disulfide; C-terminal amide) [Peptide No. 29] | 150

Source: patent publication US8906844B2 (SYNTONIX PHARMACEUTICALS, dated 2014)
